Measurements taken from patent US20230312741A1 (published 2023).
Substitutions are numbered along the chain they refer to.

B1: ADI-37505 (antibody, human IgG4 S228P, kappa, F234A L235A, V domains shown)
VH: QVQLVESGGGLVQPGGSLRLSCAASGFTFSNYAMTWVRQAPGKGLEWVSAISGRGTATYYADSVKGRFTISRDNSKNTLYLQMNSLRAEDTAVYYCARGGPYGSGSYWDTFDYWGQGTLVTVSS
VL: EIVMTQSPATLSVSPGERATLSCRASQSVSSNLAWYQQKPGQAPRLLIYGASTRATGIPARFSGSGSGTEFTLTISSLQSEDFAVYYCQQYTNHYTFGGGTKVEIKR
B2: ADI-37506 (antibody, human IgG4 S228P, kappa, F234A L235A, V domains shown)
VH: B1 VH with Q1E, V5L, Y32L, T35S, G55A, A57S
VL: B1 VL

Experiments:
[1] = molecular target: T1, CD73 mutant L159A/Y161A/K162A/V170A (human, UniProt P21589 27-549); test: flow cytometry, GS-CHO cells with CD73 mutant
T1 construct: As m43; also called mutant 16
T1 chain: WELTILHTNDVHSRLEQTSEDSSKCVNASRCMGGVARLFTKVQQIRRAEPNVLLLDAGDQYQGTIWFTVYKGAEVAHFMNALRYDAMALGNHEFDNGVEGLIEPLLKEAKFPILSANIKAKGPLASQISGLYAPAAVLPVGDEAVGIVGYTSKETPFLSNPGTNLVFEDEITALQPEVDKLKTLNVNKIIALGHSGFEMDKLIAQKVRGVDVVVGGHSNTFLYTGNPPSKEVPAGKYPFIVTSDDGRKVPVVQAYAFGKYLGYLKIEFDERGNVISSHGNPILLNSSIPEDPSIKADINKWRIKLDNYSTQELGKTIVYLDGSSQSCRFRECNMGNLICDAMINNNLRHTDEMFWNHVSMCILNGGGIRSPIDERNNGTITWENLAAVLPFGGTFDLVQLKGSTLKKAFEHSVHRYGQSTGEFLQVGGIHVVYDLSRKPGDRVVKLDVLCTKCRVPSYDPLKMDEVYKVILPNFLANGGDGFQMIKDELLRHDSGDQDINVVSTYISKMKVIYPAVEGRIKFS
Method: (§1) After washing three more times with PBS, the cells were resuspended in 100 ul PBS. (4) The average fluorescence value was measured in PE channel by flow cytometer. The Log₁₀ of antibody concentration was used as the horizontal coordinate and the average fluorescence value of the PE channel was used as the vertical coordinate to plot a curve, and the EC50 and the peak of the curve were compared.

[2] = molecular target: T2, CD73 mutant K136A/Y161A/K162A/V170A (human, UniProt P21589 27-549); test: flow cytometry, GS-CHO cells with CD73 mutant
T2 construct: As m43; also called mutant 13
T2 chain: T1 chain with K110A, A133L
Method: as §1

[3] = molecular target: T3, CD73 mutant Y161A/K162A/V170A (human, UniProt P21589 27-549); test: flow cytometry, GS-CHO cells with CD73 mutant
T3 construct: As m43; also called mutant 3
T3 chain: T1 chain with A133L
Method: as §1

[4] = molecular target: T4, human CD73 expressed on the cell surface (human, UniProt P21589 27-549); test: cell-based or functional assay
T4 sequence: T1 chain with A133L, A135Y, A136K, A144V

[5] = molecular target: T5, soluble CD73 protein (ACRO, CD3-H52H7) (human, UniProt P21589 27-547); test: cell-based or functional assay
T5 sequence (looked up): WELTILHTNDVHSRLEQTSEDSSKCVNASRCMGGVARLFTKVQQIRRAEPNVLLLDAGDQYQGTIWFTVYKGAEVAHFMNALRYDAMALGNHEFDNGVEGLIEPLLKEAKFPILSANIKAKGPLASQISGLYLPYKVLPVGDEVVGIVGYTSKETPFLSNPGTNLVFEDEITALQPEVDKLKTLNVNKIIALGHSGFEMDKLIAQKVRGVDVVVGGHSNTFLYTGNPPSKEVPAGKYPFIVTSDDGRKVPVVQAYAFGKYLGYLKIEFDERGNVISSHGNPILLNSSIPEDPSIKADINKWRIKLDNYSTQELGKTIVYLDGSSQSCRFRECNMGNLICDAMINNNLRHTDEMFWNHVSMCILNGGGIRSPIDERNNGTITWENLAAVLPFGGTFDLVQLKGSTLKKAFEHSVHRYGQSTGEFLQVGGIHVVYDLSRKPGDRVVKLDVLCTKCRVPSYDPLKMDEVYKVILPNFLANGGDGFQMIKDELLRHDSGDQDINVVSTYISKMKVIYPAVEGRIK

[6] = molecular target: T4, human CD73 expressed on the cell surface; test: cell-based or functional assay; remark: listed apart in the source

Row | Binder | binding result [1] | binding result [2] | binding result [3] | IC50 for inhibiting the enzymatic activity of CD73 (Calu-6 cells) [4] | IC50, enzymatic activity of soluble CD73 at 1 hour [5] | IC50, enzymatic activity of CD73 on NCI-H292 cells [6]
1 | B1 | binds | binds | binds | 0.076 µg/mL | 71.8 pM | 1470 pM
2 | B2 | binds | binds | binds | 0.073 µg/mL | 89.7 pM | 1270 pM
